Results reported in paper PMC11096372.

Molecular target: Cas8b;Cas7b;Cas5b;Cas6b;Cas11b (Synechocystis sp. PCC 6714;Synechocystis sp. PCC 6714;Synechocystis sp. PCC 6714;Synechocystis sp. PCC 6714;Synechocystis sp. PCC 6714) (UniProt A0A068N831+A0A068N458+A0A068N1Y0+A0A068N831)
Assay: EMSA
Conditions: crRNA-loaded Cascade; EMSA: 10 nM labeled DNA, Cascade 0-200 nM, 20 mM HEPES pH 7.5, 100 mM NaCl, 25 C, 1 h; 6% acrylamide gel, 0.5x TBE, cold room; Hill fit

Question: Which Kd does the source give for “TAATACGACTCACTATAGGTCGCGGATCCATATTTATCACCGTGTCCCCAATCTGGATATTTTGTGTCTCGAGCACCACCGCTGAGCAATAACTAGC (double strand) [ATA-PAM 97 bp (synPAM-13)]” here?
Answer: 0.024 µM

Question: How did the Kd turn out when “TAATACGACTCACTATAGGTCGCGGATCCACTTTTATCACCGTGTCCCCAATCTGGATATTTTGTGTCTCGAGCACCACCGCTGAGCAATAACTAGC (double strand) [ACT-PAM 97 bp (synPAM-12)]” was run?
Answer: 0.14 µM

Question: Which Kd does the source give for “TAATACGACTCACTATAGGTCGCGGATCCATCTTTATCACCGTGTCCCCAATCTGGATATTTTGTGTCTCGAGCACCACCGCTGAGCAATAACTAGC (double strand) [ATC-PAM 97 bp (synPAM-15)]” here?
Answer: 0.0477 µM

Question: Which Kd does the source give for “TAATACGACTCACTATAGGTCGCGGATCCACATTTATCACCGTGTCCCCAATCTGGATATTTTGTGTCTCGAGCACCACCGCTGAGCAATAACTAGC (double strand) [ACA-PAM 97 bp (synPAM-9)]” here?
Answer: 0.0562 µM

Question: How did the Kd turn out when “TAATACGACTCACTATAGGTCGCGGATCCACCTTTATCACCGTGTCCCCAATCTGGATATTTTGTGTCTCGAGCACCACCGCTGAGCAATAACTAGC (double strand) [ACC-PAM 97 bp (synPAM-11)]” was run?
Answer: 0.0582 µM

Question: For “TAATACGACTCACTATAGGTCGCGGATCCACGTTTATCACCGTGTCCCCAATCTGGATATTTTGTGTCTCGAGCACCACCGCTGAGCAATAACTAGC (double strand) [ACG-PAM 97 bp (synPAM-10)]”, which Kd is on record?
Answer: 0.0206 µM

Question: “TAATACGACTCACTATAGGTCGCGGATCCATGTTTATCACCGTGTCCCCAATCTGGATATTTTGTGTCTCGAGCACCACCGCTGAGCAATAACTAGC (double strand) [ATG-PAM 97 bp (synPAM-14)]” was tested. Which Kd did it give?
Answer: 0.018 µM

Question: For “TAATACGACTCACTATAGGTCGCGGATCCATTTTTATCACCGTGTCCCCAATCTGGATATTTTGTGTCTCGAGCACCACCGCTGAGCAATAACTAGC (double strand) [ATT-PAM 97 bp (synPAM-16)]”, which Kd is on record?
Answer: 0.0597 µM
